Publication PMC2576564 (Frontiers in Molecular Neuroscience, 2008)

Biological target: the molecule itself
Test: SEC; Superdex 200 16/60 column, after Ni-NTA purification of the secreted protein

B1: extracellular domain of human DPP6-L (residues 117–865) (domain or fragment)
chain: not shown
modifications: glycosylated
- stoichiometry N: 2
